Numbering of substitutions follows the chain as printed.
How the values were obtained:
Experiment in all cases: ITC
MepR(F27L/F104A) = molecular target: T1, MepR(F27L/F104A) (Staphylococcus aureus, UniProt Q5Y812 1-139, F27L;F104A)
T1 sequence: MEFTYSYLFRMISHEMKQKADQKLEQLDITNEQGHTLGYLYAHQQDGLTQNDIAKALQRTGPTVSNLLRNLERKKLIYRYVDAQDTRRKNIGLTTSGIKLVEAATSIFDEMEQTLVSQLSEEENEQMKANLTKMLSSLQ

MepR(A103S) = molecular target: T2, MepR(A103S) (Staphylococcus aureus, UniProt Q5Y812 1-139, A103S)
T2 sequence: T1 sequence with L27F, A103S, A104F

MepR(Q18A) = molecular target: T3, MepR(Q18A) (Staphylococcus aureus, UniProt Q5Y812 1-139, Q18A)
T3 sequence: T1 sequence with Q18A, L27F, A104F

MepR WT = molecular target: T4, MepR WT (Staphylococcus aureus, UniProt Q5Y812 1-139)
T4 sequence: T1 sequence with L27F, A104F

B1: mepR operator, palindromic 26-mer (dsDNA)
DNA 1: TATTTAGTTAGATATCTAACTAAATA
DNA 2: TATTTAGTTAGATATCTAACTAAATA
Kd (MepR(F27L/F104A)): 32.3 nM
Kd (MepR(A103S)): 42.6 nM
Kd (MepR(Q18A)): 34.1 nM
Kd (MepR WT): 36.6 nM

— paper PMC3760248
